± gives the uncertainty stated by the source.
Test: self-splicing fitness, log relative to wild type (ln ratio); higher = more splicing; Tetrahymena group I intron in knt gene, E. coli kanamycin selection, DiMSum; sequences stand for … in CUCUCU…GGAGGGAAAAGUUAUCAGGCAUGCACCUGGUAGCUAGUCUUUAAACCAAUAGAUUGCAUCGGUUUAAAAGGCAAGACCGUCAAAUUGCGGGAAAGGGGUCAACAGCCGUUCAGUACCAAGUCUCAGGGGAAACUUUGAGAUGGCCUUGCAAAGGGUAUGGUAAUAAGCUGACGGACAUGGUCCUAACCACGCAGCCAAGUCCUAAGUCAACAGAUCUUCUGUUGAUAUGGAUGCAGUUCACAGACUAAAUGUCGGUCGGGGAAGAUGUAUUCUUCUCAUAAGAUAUAGUCGGACCUCUCCUUAAUGGGAGCUAGCGGAUGAAGUGAUGCAACACUGGAGCCGCUGGGAACUAAUUUGUAUGCGAAAGUAUAUUGAUUAGUUUUGGAGUACUCGUGGUCG
Procedure, shortened: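 Library with all eight P1ex-region intron nucleotides randomised, intron inside the knt kanamycin-resistance gene on pET-22b(+), in E. coli BL21(DE3). Cells grew overnight at 37°C or 30°C on LB agar with or without 25 μg/mL kanamycin (plus 100 μg/mL carbenicillin, 50 μM IPTG, 0.2% rhamnose), in six replicate transformations. Pooled colonies were amplicon-sequenced on Illumina HiSeq 2500. DiMSum fitness is the error-weighted combination of wild-type-normalised replicate fold changes, kanamycin versus none.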

## GUUCAGCAAUAUUACGGACA
30 °C
  self-splicing fitness (ln): -1.59 ± 0.18
37 °C
  self-splicing fitness (ln): -1.02 ± 0.16

## CAUAAGCAAUAUUACGAAAG
30 °C
  self-splicing fitness (ln): -1.13 ± 0.09
37 °C
  self-splicing fitness (ln): -0.268 ± 0.12

## AAGUAGCAAUAUUACGCAGG
30 °C
  self-splicing fitness (ln): -3.61 ± 0.27
37 °C
  self-splicing fitness (ln): -1.87 ± 0.15

## CCUCAGCAAUAUUACGCAUU
30 °C
  self-splicing fitness (ln): -3.81 ± 0.19
37 °C
  self-splicing fitness (ln): -2.3 ± 0.22

## AGGGAGCAAUAUUACGGGCG
30 °C
  self-splicing fitness (ln): -4.23 ± 0.32
37 °C
  self-splicing fitness (ln): -2.35 ± 0.25

## AAUUAGCAAUAUUACGCACA
30 °C
  self-splicing fitness (ln): 0.0525 ± 0.13
37 °C
  self-splicing fitness (ln): -0.475 ± 0.15

## UUGCAGCAAUAUUACGAGUA
30 °C
  self-splicing fitness (ln): -1.92 ± 0.16
37 °C
  self-splicing fitness (ln): -1.42 ± 0.15

## UUUCAGCAAUAUUACGUUAG
30 °C
  self-splicing fitness (ln): -1.31 ± 0.11
37 °C
  self-splicing fitness (ln): -0.474 ± 0.12

## GUUGAGCAAUAUUACGAAGG
30 °C
  self-splicing fitness (ln): -3.35 ± 0.41
37 °C
  self-splicing fitness (ln): -2.68 ± 0.4

## GAACAGCAAUAUUACGACUC
30 °C
  self-splicing fitness (ln): 0.0151 ± 0.071
37 °C
  self-splicing fitness (ln): -0.517 ± 0.082

## CGGAAGCAAUAUUACGCCCA
30 °C
  self-splicing fitness (ln): -0.0821 ± 0.13
37 °C
  self-splicing fitness (ln): 0.194 ± 0.2

## CUUAAGCAAUAUUACGGGGU
30 °C
  self-splicing fitness (ln): -3.09 ± 0.15
37 °C
  self-splicing fitness (ln): -3.33 ± 0.29

## AUGAAGCAAUAUUACGGUCG
30 °C
  self-splicing fitness (ln): 0.0254 ± 0.086
37 °C
  self-splicing fitness (ln): 0.299 ± 0.1

## UUGGAGCAAUAUUACGGUGA
30 °C
  self-splicing fitness (ln): -1.27 ± 0.22
37 °C
  self-splicing fitness (ln): -1.36 ± 0.14

## GACAAGCAAUAUUACGCUGU
30 °C
  self-splicing fitness (ln): -3.61 ± 0.25
37 °C
  self-splicing fitness (ln): -1.12 ± 0.2

## CAGAAGCAAUAUUACGCCAA
30 °C
  self-splicing fitness (ln): -3.35 ± 0.38

## UGCCAGCAAUAUUACGCAUA
30 °C
  self-splicing fitness (ln): -1.67 ± 0.088
37 °C
  self-splicing fitness (ln): -1.26 ± 0.087

## UAUCAGCAAUAUUACGUGUC
30 °C
  self-splicing fitness (ln): -4.01 ± 0.17
37 °C
  self-splicing fitness (ln): -1.79 ± 0.12

## ACAUAGCAAUAUUACGCGUU
30 °C
  self-splicing fitness (ln): -3.55 ± 0.24
37 °C
  self-splicing fitness (ln): -2.39 ± 0.15

## CUGAAGCAAUAUUACGGGAA
30 °C
  self-splicing fitness (ln): -2.05 ± 0.18

## GAUUAGCAAUAUUACGGUUG
30 °C
  self-splicing fitness (ln): -1.43 ± 0.12
37 °C
  self-splicing fitness (ln): -1.02 ± 0.15

## CCGAAGCAAUAUUACGUAUG
30 °C
  self-splicing fitness (ln): -0.869 ± 0.077
37 °C
  self-splicing fitness (ln): 0.0157 ± 0.1

## CAGGAGCAAUAUUACGCUAA
30 °C
  self-splicing fitness (ln): -3.29 ± 0.5
37 °C
  self-splicing fitness (ln): -1.19 ± 0.41

## AACAAGCAAUAUUACGGCCG
30 °C
  self-splicing fitness (ln): -0.739 ± 0.12
37 °C
  self-splicing fitness (ln): 0.121 ± 0.15

## AUAUAGCAAUAUUACGCUCA
30 °C
  self-splicing fitness (ln): -0.563 ± 0.18
37 °C
  self-splicing fitness (ln): 0.319 ± 0.22

## UAGAAGCAAUAUUACGUGAG
30 °C
  self-splicing fitness (ln): -0.573 ± 0.06
37 °C
  self-splicing fitness (ln): -0.716 ± 0.079

## CUUGAGCAAUAUUACGAUGC
30 °C
  self-splicing fitness (ln): -3.25 ± 0.3
37 °C
  self-splicing fitness (ln): -2.5 ± 0.41

## AUAAAGCAAUAUUACGCUCU
30 °C
  self-splicing fitness (ln): 0.0815 ± 0.089
37 °C
  self-splicing fitness (ln): 0.0503 ± 0.1

## GGUUAGCAAUAUUACGUGGG
30 °C
  self-splicing fitness (ln): -2.93 ± 0.2
37 °C
  self-splicing fitness (ln): -2.54 ± 0.18

## GAAGAGCAAUAUUACGAUCU
30 °C
  self-splicing fitness (ln): -1.21 ± 0.14
37 °C
  self-splicing fitness (ln): -0.955 ± 0.18

## UUAAAGCAAUAUUACGUCAG
30 °C
  self-splicing fitness (ln): -0.815 ± 0.065
37 °C
  self-splicing fitness (ln): 0.0256 ± 0.093

## CGUUAGCAAUAUUACGGGAC
30 °C
  self-splicing fitness (ln): -2.68 ± 0.34
37 °C
  self-splicing fitness (ln): -3.7 ± 0.39

## UAGCAGCAAUAUUACGCUGA
30 °C
  self-splicing fitness (ln): -2.19 ± 0.15
37 °C
  self-splicing fitness (ln): -1.71 ± 0.18

## UUCGAGCAAUAUUACGACAU
30 °C
  self-splicing fitness (ln): -3.097 ± 0.026
37 °C
  self-splicing fitness (ln): -1.94 ± 0.038

## ACGGAGCAAUAUUACGUUAC
37 °C
  self-splicing fitness (ln): -2.56 ± 0.22

## AAAUAGCAAUAUUACGCGCG
30 °C
  self-splicing fitness (ln): -0.988 ± 0.1
37 °C
  self-splicing fitness (ln): -0.952 ± 0.11

## GCUGAGCAAUAUUACGCUAG
30 °C
  self-splicing fitness (ln): -3.28 ± 0.16
37 °C
  self-splicing fitness (ln): -1.27 ± 0.14

## ACGAAGCAAUAUUACGAUAA
30 °C
  self-splicing fitness (ln): -1.62 ± 0.15
37 °C
  self-splicing fitness (ln): -1.39 ± 0.14

## GUCUAGCAAUAUUACGUGCA
30 °C
  self-splicing fitness (ln): -1.38 ± 0.096
37 °C
  self-splicing fitness (ln): -0.535 ± 0.1

## GCGGAGCAAUAUUACGCCAA
30 °C
  self-splicing fitness (ln): -2.32 ± 0.44

## UCAAAGCAAUAUUACGUGGC
30 °C
  self-splicing fitness (ln): -3.62 ± 0.32
37 °C
  self-splicing fitness (ln): -2.45 ± 0.32

## GUCCAGCAAUAUUACGCUAU
30 °C
  self-splicing fitness (ln): -0.823 ± 0.055
37 °C
  self-splicing fitness (ln): -0.104 ± 0.071

## ACUCAGCAAUAUUACGCUUG
30 °C
  self-splicing fitness (ln): -1.83 ± 0.069
37 °C
  self-splicing fitness (ln): -0.599 ± 0.083

## ACAAAGCAAUAUUACGACCU
30 °C
  self-splicing fitness (ln): 0.0994 ± 0.076
37 °C
  self-splicing fitness (ln): 0.311 ± 0.091

## GCACAGCAAUAUUACGCGAA
30 °C
  self-splicing fitness (ln): -0.472 ± 0.066
37 °C
  self-splicing fitness (ln): 0.308 ± 0.071

## ACGGAGCAAUAUUACGGCAU
37 °C
  self-splicing fitness (ln): -1.53 ± 0.23

## CGCAAGCAAUAUUACGUAGA
30 °C
  self-splicing fitness (ln): -2.6 ± 0.11
37 °C
  self-splicing fitness (ln): -1.73 ± 0.13

## AUUCAGCAAUAUUACGAAUU
30 °C
  self-splicing fitness (ln): -3.71 ± 0.15
37 °C
  self-splicing fitness (ln): -2.29 ± 0.16

## UCCCAGCAAUAUUACGAAGA
30 °C
  self-splicing fitness (ln): -0.348 ± 0.084
37 °C
  self-splicing fitness (ln): -0.266 ± 0.09

— the supplement of paper PMC7877785
